In article PMC11958657:

How the values were obtained:
[1] = molecular target: R4-MHC (SIYRYYGL peptide presented by H-2K^b) (mouse | human); experiment: micropipette single-cell adhesion frequency assay; biotinylated pMHC on streptavidin-coated red blood cells against a TCR-expressing T cell; 2D effective binding affinity AcKa; whether CD8 was on the T cells is not stated
[2] = molecular target: L4-MHC (SIYLYYGL peptide presented by H-2K^b) (mouse | human); experiment: as above
[3] = molecular target: R4-MHC (SIYRYYGL peptide presented by H-2K^b) (mouse | human); experiment: ultra-stable biomembrane force probe (U-BFP), force-clamp bond lifetimes; as a3, but the 2C hybridoma cell expresses CD8 with CD8β-Ile2Ala at a level matched to WT CD8
[4] = molecular target: R4-MHC (SIYRYYGL peptide presented by H-2K^b) (mouse | human); experiment: ultra-stable biomembrane force probe (U-BFP), force-clamp bond lifetimes; biotinylated pMHC on a streptavidin bead on a red blood cell probe against a TCR-expressing T cell without CD8; adhesion frequency below 20%; DMEM with 0.5% BSA
[5] = molecular target: L4-MHC (SIYLYYGL peptide presented by H-2K^b) (mouse | human); experiment: micropipette single-cell adhesion frequency assay; TCR on a hybridoma T cell held by a micropipette, brought into contact with a streptavidin-coated biotinylated human RBC carrying biotinylated pMHC; bi-molecular TCR-pMHC (CD8-); zero force; 2D effective constants from the fit of adhesion frequency against contact time
[6] = molecular target: R4-MHC (SIYRYYGL peptide presented by H-2K^b) (mouse | human)
[7] = molecular target: R4-MHC (SIYRYYGL peptide presented by H-2K^b) (mouse | human); experiment: ultra-stable biomembrane force probe (U-BFP), force-clamp bond lifetimes; as a3, but the T cell expresses wild-type CD8αβ beside the TCR (TCR–pMHC–CD8 tri-molecular interaction)
[8] = molecular target: R4-MHC ( peptide presented by H-2K^b) (mouse | human); experiment: SPR
[9] = molecular target: L4-MHC ( peptide presented by H-2K^b) (mouse | human); experiment: SPR
[10] = molecular target: L4-MHC (SIYLYYGL peptide presented by H-2K^b) (mouse | human); experiment: ultra-stable biomembrane force probe (U-BFP), force-clamp bond lifetimes; biotinylated pMHC on a streptavidin bead on a red blood cell probe against a TCR-expressing T cell without CD8; adhesion frequency below 20%; DMEM with 0.5% BSA
[11] = molecular target: L4-MHC (SIYLYYGL peptide presented by H-2K^b) (mouse | human)
[12] = molecular target: L4-MHC (SIYLYYGL peptide presented by H-2K^b) (mouse | human); experiment: ultra-stable biomembrane force probe (U-BFP), force-clamp bond lifetimes; as a3, but the T cell expresses wild-type CD8αβ beside the TCR (TCR–pMHC–CD8 tri-molecular interaction)
[13] = molecular target: R4-MHC (SIYRYYGL peptide presented by H-2K^b) (mouse | human); remark: listed apart in the source

Substance | 2D effective binding affinity (AcKa) [1] [μm^4] | 2D effective binding affinity (AcKa) [2] [μm^4] | bond lifetime ratio R4-MHC over L4-MHC, high force regime (16–19 pN), without CD8 [4] [fold] | bond lifetime ratio R4-MHC over L4-MHC, low force regime (2–5 pN), without CD8 [4] [fold] | bond lifetime ratio R4-MHC over L4-MHC, medium force regime (9–12 pN), without CD8 [4] [fold] | koff [5] [s⁻¹] | bond lifetime ratio R4-MHC over L4-MHC, medium force regime (9–12 pN), with CD8 [7] [fold] | peak bond lifetime, with CD8 [7] [s] | Kd [8] [nM] | Kd [9] [nM] | other results
2C-TCR | 0.0016 | 3.7e-05 | 5.1 | 1.3 | 3.38 | 6.61 | 10 | 0.8 |  |  | bond lifetime ratio R4-MHC over L4-MHC, medium force regime, with CD8β-Ile2Ala [3]: 4.81; fold reduction of CD8 enhancement power (CD8β-Ile2Ala against WT CD8) [3]: 2 times; peak bond lifetime, with CD8β-Ile2Ala [3]: 0.54 s; peak bond lifetime (at ~8.32 pN), without CD8 [4]: 0.3 s; IL-2 production of 2C hybridoma T cells stimulated by RMA-S cells pulsed with R4 peptide, with CD8 against without CD8 [6]: > 100 fold; CD8 enhancement power (bond lifetime with CD8 over without CD8), medium force regime [7]: 3.04 fold
2C-TCR, soluble ectodomains |  |  |  |  |  |  |  |  | 20200 | 38200 | 
m33-TCR | 0.0013 | 0.00089 | 7.55 | 1.13 | 1.99 | 4.22 | 1.19 | 5.2 |  |  | peak bond lifetime (at ~12.85 pN), without CD8 [4]: 3.43 s; peak bond lifetime (at ~9.62 pN), without CD8 [10]: 1.82 s; R4 peptide concentration (on RMA-S cells) at which m33 hybridoma T cells release IL-2, without CD8 [6]: 100 pM; L4 peptide concentration (on RMA-S cells) at which m33 hybridoma T cells release IL-2, with CD8 [11]: 1 nM; CD8 enhancement power (bond lifetime with CD8 over without CD8), medium force regime [7]: 3.4 fold; CD8 enhancement power (bond lifetime with CD8 over without CD8), medium force regime [12]: 5.7 fold; peak bond lifetime, with CD8 [12]: 3.99 s
m33-TCR, soluble ectodomains |  |  |  |  |  |  |  |  | 187 | 567 | 
m67-TCR | 0.0016 | 0.00099 | 2.63 | 0.34 | 3.77 | 4.92 | 0.96 | 5.95 |  |  | peak bond lifetime, without CD8 [4]: 5.94 s; peak bond lifetime, without CD8 [10]: 2.56 s; R4 peptide concentration (on RMA-S cells) at which m67 hybridoma T cells release IL-2, without CD8 [6]: 10 nM; L4 peptide concentration (on RMA-S cells) at which m67 hybridoma T cells release IL-2, with CD8 [11]: 100 pM; CD8 enhancement power (bond lifetime with CD8 over without CD8), medium force regime [12]: 4.36 fold; peak bond lifetime, with CD8 [12]: 5.09 s
m67-TCR, soluble ectodomains |  |  |  |  |  |  |  |  | 26.3 | 96.2 | 
mouse CD8αβ with CD8β-Ile2Ala (from UniProt P01731 28-247; P10300 22-213) (receptor) |  |  |  |  |  |  |  |  |  |  | TCR specificity of 2C hybridoma cells (ratio of IL-2 sensitivities for R4 over L4) with CD8β-Ile2Ala [13]: 7070
mouse CD8αβ, wild type (from UniProt P01731 28-247; P10300 22-213) (receptor) |  |  |  |  |  |  |  |  |  |  | TCR specificity of 2C hybridoma cells (ratio of IL-2 sensitivities for R4 over L4) with WT CD8 [13]: 65500
